Results as given in the nanobody polyreactivity screen of Harvey et al. (2022).

Assay: yeast display, Sf9 membrane polyspecificity reagent, FACS + sequencing; frameworks hold sequencing errors
Outline: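 A nanobody's polyreactivity label depends on the gate it was sorted from. Yeast display cells were stained with 10% biotinylated, detergent-solubilized Sf9 membrane reagent for 1 hour at 4 °C, enriched on streptavidin microbeads and sorted by FACS. The low and high (top ~1%) gates were set on anti-HA fluorescence for expression and streptavidin fluorescence for reagent binding.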

Sequence: QVQLVESGGGLVQAGGSLRLSCAASGLTSHSYAMGWYRQAPGKERELVAAINGDGGSTYYADSVKGRFTISRDNAKNTVYLQMNSLKPEDTAVYYCAAQGNRPRGEYDYWGQGTQVTVSS
- polyreactivity (PSR sort gate): high polyreactivity

Sequence: QVQLVETGGGLVQAGGILRLSCAASGLIFTGNVMGWYRQAPGKESELVAAISRSGGRTYYADSVKGRFTISRDNAKNTVYLQMNSLKPEDTAVYYCNKVSPERVYYGSYFRYYYWGQGTQVTVSS
- polyreactivity (PSR sort gate): high polyreactivity

Sequence: QVQLVESGGGLVQAGGSLRVSCAASGCTFVDYAMCWYRQAPGKERELVAGITSGGSTNYADSVKGRFTISRDNAKNTVYLQMNSVKPEDTAVYDCNADPGQDTPGYTRPEYDYWGQGTQVTVSS
- polyreactivity (PSR sort gate): low polyreactivity

Sequence: QVQLVESGGGLVQAGGSLRLSCAASGITFRWYAMGWSRQAPGKERELVAAIDGGGSTYYADSVKGRFTISRDNAKNTVYLQMNSMKPEDTAVYYCAADYGRRYHTPYGWDYYYWGQGTQVTVSS
- polyreactivity (PSR sort gate): high polyreactivity

Sequence: QVQLVESGGGLVQAGGSLRLSCAASGSIFGGYAMGWYRQAPGKERELVAVISSGGSTNYADSVKGRFTISRDNAKNTVYLQMNSLKPEDTAVYYCAATVIYAYRGHFYQYDYWGQGTQVTVSS
- polyreactivity (PSR sort gate): high polyreactivity

Sequence: QVQLVESVVGLVQAGGSLRLSCAASGRTFRRYAMGWYRQAPGKERELVAAISRSGGSTYADSVKGRFTISRDNAKNTVYLQMNSLKPEDTAVYYCAAVTYSGSRFDYWGQGTQVTVSS
- polyreactivity (PSR sort gate): high polyreactivity

Sequence: QVQLVESGGGLVQAGGSLRLSCAASGSIFFAYSMGWYRQAPGKERELVAAISWSDGSTYYADSVKGRFTISRDNAKNTVYLQMNSLKPEDTAVYYCDKVYRSIGPNVSRYGLSYYYWGQCTQVTVSS
- polyreactivity (PSR sort gate): low polyreactivity

Sequence: QVQLVESGGGLVQAGGSLRLSCAASGFIFFGEYVMGWYRQAPGKEREFVAAITDSDGSTYYADSVKGRFTISRDNAKNTVYLQMTSLKPEDTAVYYCAAERVCSDMDYWGQGTQVTVSS
- polyreactivity (PSR sort gate): low polyreactivity

Sequence: QVQLVESGGGLVQAGGSLRLSSAASGSTFDYYALGWYSQARGKERELVAAISTSGSSTYYADSVKGRFTISRDNAKNTVYLQMNSLKPVDTAVYYCAAPIRYKGGYWGQGTQVTVSS
- polyreactivity (PSR sort gate): low polyreactivity

Sequence: QVQLVESGGGLVQAGGSLRLSCAASGSIFGLYAMGWYRQAPGKERELVAAISSSGGTTYYADSVKGRFTISRDNEKNTVYLQMNSLKPEDTAVYYCATDYYDDVTIGYDYWGQGTQVTVSS
- polyreactivity (PSR sort gate): low polyreactivity

Sequence: QVQLVESAGGLVQAGGSHRLSCPASGSIFDYNPMGWYTQAPGKESELVAAITSGGSTNYADSVKGRFTISRDNAKNTVYLHMNSLKPEDTAVYYCAADHDYYPSNLDFWGQGTQVTVSS
- polyreactivity (PSR sort gate): low polyreactivity

Sequence: QVQLVESGGGLVQAGGSLRLSCAASGSTYYNAMGWYRQAPGKERELVAAIRFRSGSTYYADSVKGRFTISRDNAKNTVYLQMNSLKPEDTAVYYCAADNKRSWRYAYNYWGQGTQVTVSS
- polyreactivity (PSR sort gate): high polyreactivity

Sequence: QVQLVESGGALVQAGCSLSLSCAASGRIFSHNAMGWYRQAPGKERELVAGISSGGGTTYADSVKGRFTISRDNAKNNVYLQMNSLKPEDTAVYYCNKQDQPVGRSGYPYGYDYWGQGTQVTVSS
- polyreactivity (PSR sort gate): low polyreactivity

Sequence: QLQLVESGGGLVQAGGSLRLSCAASGLILPYYAMGWYRQAPGKERALVAAISRTGGRTSYADSVKGRFTISRDNAKNTVYLQMNSLKPEDTAVYYCAARYGRYYGYNYWGQGTQVTVSS
- polyreactivity (PSR sort gate): high polyreactivity

Sequence: QVQLVESGGGLVQAGGSLRLSCAASGIILTQNAMGWYRQAPGKERELVAAITESGARTYYADSVKGRFTISRDNAKNTVYLQMNSLKPEDTAVYYCNAYRYYRGQVYPFYYWGQGTQVTVSS
- polyreactivity (PSR sort gate): low polyreactivity

Sequence: QVQLVESGGGLVQAGGSLRISCAASGITFTSYAMGWYRQAPGKERELVAAISSSGVRTYYADSVKGRFTISRDNAKNTVYLQLNSLKPEDTAVYYCATRRRVLDGYDYGGQGTQVTVSS
- polyreactivity (PSR sort gate): high polyreactivity

Sequence: QVQLVESGGGLVQAGGSLRLSCAASGGTFRVYAMGWYRKAPGKERELVAAITGRGGSTYYADSVKGRFTISRDNAKNTVYLQMNSLKPEDTAVYDCAKDPVTTYYKYDYWGQGTQVTVSS
- polyreactivity (PSR sort gate): low polyreactivity

Sequence: QVQLVESGGGLVQAGGSLRLSCAASGSIFKRYAMGRYRQAPGKERELVAAISYSGTSTYYADSVKGRFTISRDTAKNTVYLQMNSLKPEDTAVYYCNKVPGYRHYLGYPGRYGYWGQGTQVTVSS
- polyreactivity (PSR sort gate): high polyreactivity

Sequence: QVQLVESGGGLVQAGGSLRLSCAASGITFLDYAMRWYRQAPGKERELVAAITKSVGSTYYADSVKGRFTISRDNAKNTVYLQMNSLKPEDTAVYYCAADPDSGQVPFDYWGQGTQVTVSS
- polyreactivity (PSR sort gate): low polyreactivity

Sequence: QVHLVESGGGLVQAGGSLRLSCAASGSTFYTYVMGWYRQAPGKERELVAAISEDDGNTYYADSVKGRFTISRDNAKNTVYLQMNSLKPEDTAVYYCAADWEDDLAYSAYDYWGQGTQVTVSS
- polyreactivity (PSR sort gate): high polyreactivity

Sequence: QVQLVESGGGLVQAGGSLRLSCAASGSTFLRYVMGWYRQAPGKERELVAAIDSGGSTHYADSVKGRFTISRDNAKNTVYLQMNSLKPEDTAVYYCNVDVSSDDWYPSTADFDYWGQGTQVTVSS
- polyreactivity (PSR sort gate): high polyreactivity

Sequence: QVQLVESGGGLVQAVGSLRLSCAASGFPFRRYALGCYRQAPGKERELDATISSSGASTYYADSVKGRFTISRDHAKNTVYFKMIRLKPVDTAVYYCAATKGSICKLYLYCLFDYWGQGTQVTVSS
- polyreactivity (PSR sort gate): high polyreactivity

Sequence: QVQLVESGGGLVQAGGSLRLSCAASGSIFFYNAMGWYRQAPGKERELVAAISRGGNTNYADSVKGRFTISRDNANNTVYLQMNSLKPEDTAVYYCNAESLSGAHGYWGQGTQVTVSS
- polyreactivity (PSR sort gate): low polyreactivity

Sequence: QVQLVESGGGLVQAGGSLRLSCAASGRTFRWTAMGWYRQAPGKERELVAAISYSGGSTYYADSVKGRFTISRDNAKNTVYLQMNSLKPEDTAVYYCAKAYSWYPIIRGLDSWGQGTQVTVSS
- polyreactivity (PSR sort gate): high polyreactivity

Sequence: QVQHVESGGGLVQAGGSHRLSCAASGSTFGSNDMRWYRQSPGKERQLVAAIRGIVGSTYYADSVKGRFTISRDHAKNTVYLQMNSLKPEDTAVYYCNKAEVSTYYQSSSTYGGYDYWGQGTQVTVSS
- polyreactivity (PSR sort gate): low polyreactivity

Sequence: QVQLVESGGGLVQAGGSLRLSCAASGGTFYLYAMGWYRQAPGKERELVAAISRSGGITYYADSVKGRFTISRDNAKNTVYLQMNSLKPEDTAVYYCDAAALSRYRLQEGYYWGQGTQVTVSS
- polyreactivity (PSR sort gate): high polyreactivity

Sequence: QVQLVESGGGLVQAGGSLRLSCAASGRTFLYYAMGWYRQEPGKERELVAAITGRGGSTYNADSVKGLFTISRDNAQNTVYLKMNILKPEDTAVYYCAARDNWIRRDGYWGQGTQVTVSS
- polyreactivity (PSR sort gate): high polyreactivity

Sequence: QVQLVESGGGFLQAGGSLRLSCAASGRIFNYYAMGWYRQAPGTERELVAGINWSGTRTYYADSVKGRFTISRDNAKNTVYLQMNSLKPEDTAVYYCNAGRTWRAFTGDEYWGQATQVTVSS
- polyreactivity (PSR sort gate): high polyreactivity

Sequence: QVQLVESGGGLVQAGGSLRLSCAASGRIFRYNAMGWYRQAPGKERELVAAISRGGSSTYYADSVKGRFTISRDNAKNTVYLQMNSLKPEDTAVYYCNARSVVREFNYWGQGTQVTVSS
- polyreactivity (PSR sort gate): high polyreactivity

Sequence: QVQLVESGGGLVQAGGSLRLSCAASGLIFLSHTMGWYRQAPGKERELVATIDGGAGSTYYADSVKGRFTFSRDNAKNTVYLQMNSLKPEDTAVYYCAATTIPGWFGSFPVSAGDYWGQGTQVTVSS
- polyreactivity (PSR sort gate): low polyreactivity

Sequence: QVKLVESAGCLVQAGGSLRLSCAASGRIFRRYAMGWYRQSTGKESELVAAISSRGGLTYYADSVKGRFTISRDNAKNTVYLLMNSLKTEDTAVYYCAAYYFVTETYGPYEYWGQGTQVTVSS
- polyreactivity (PSR sort gate): high polyreactivity

Sequence: QDQLVESGGGLVQAGGSLRLICAASGSNFGYYGMGWYRQAPGKEREFVAAITFSGGSTYYADSVKGRFTISRDNAKNTVYLQMNSLKPEDTAVYYFAAVYYGPYTYRHKMYYWGQGTQVTVSS
- polyreactivity (PSR sort gate): low polyreactivity

Sequence: QVQLVESGGGLVQAGGSLRLSCAASGSTFRPYVMGWSRQAPGKERELVAAISWRGGTTYYADSVKGRFTISRDNAKNTVYLQMNSQKPEDPAVYYCAARGDQGVPVARRYDYWGQGTQVTVSS
- polyreactivity (PSR sort gate): high polyreactivity

Sequence: QFQRGESGGGLVQAGGSLRLSCAASGRLFYSYAMGGYRQAPGKERELVAAINSGDRTYYADSVKGRFTISRDNAKNTVYLQKNSLNPEDPAVYYCATRWFAFPWDEYNYWGQGSQVTVSS
- polyreactivity (PSR sort gate): low polyreactivity

Sequence: QVQLVESGGGLVQAGGSLRLSCAASGRNFSRYAMGWYRQAPGKERELVAAISRRGGSTYYADSVKGRFTISRDNAKNTVYLQMNSLKPEDTAVYFCAKYPSAYVDSDVTYDMDYWGQGTQVTVSS
- polyreactivity (PSR sort gate): low polyreactivity

Sequence: QVQLVESGGGLVQAGGSLRLSCAASGSILRQYAMGWYRQAPGKERELVATITGDGSTNYADSVKGRFTISRDNAKNTVYLQMNSLKPEDTAVYYCAADQTYTYEYWGQGTQVTVSS
- polyreactivity (PSR sort gate): low polyreactivity

Sequence: QVQLVESGGGLVQAGGSLRLSCAASGRIFTYYAMGWYRQAPGKERELVASITGSGGSTDYADSVKGRFTISLDNAKNTVYLQMNSLKPEDTAVYYCAADHSGVSRYDYWGQGTQVTVSS
- polyreactivity (PSR sort gate): low polyreactivity

Sequence: QVQLVESGGGLVQAGGSLRLSCAASGRTFLIYAMGWYRQAPGKETEFVAAIRGRGGSTYYADSVKGRFTISRDNAKNTVYFQMNCLKPVDTAVYYCAATFPGRSYRIRGYGYDYWGQGTQVTVSS
- polyreactivity (PSR sort gate): high polyreactivity

Sequence: QVQHEESGGGLVQAGGSLRLSCAASGRIFPVNAMGWSRKAPGKERELLAAITRNGGSTYYADSVKGRFTISRDNAKNTVYLQMNSLKPEDTAVSYCAVRVVYGPAWAKMYYWGQGTQVTVSS
- polyreactivity (PSR sort gate): high polyreactivity

Sequence: QVQLVESGGGLVQAGGSLRLSCAASGFIFGTYAMGWYRHAPGKERELVAAISVGGGSTYYADSVKGRFTISRDNAKNTVYLQMNSLKPEDTAVYYCAAVQLFQKHQITYVANEYWGQGTQVTVSS
- polyreactivity (PSR sort gate): low polyreactivity

Sequence: QVQLVESGGGLVQAGGSLRLSCAASGRIFNWYVMGWYRQAPGKERELVAAINSGGITKYADSVKGRFTISRDNAKNTVYLQMNSLKPEDTAVYYCAAYYRRYDYDYWGQGTQVTVSS
- polyreactivity (PSR sort gate): high polyreactivity

Sequence: QVQLVESGGGLVQAGGSLRLSCAASGSTFLTYAMGWYRQAAGKERELVAGISYSTGSTYYADSVKGRFTISRDNAKNTVYLQMNSLKPEDTAVYYCAADEWDGLWYYYYFNYEDWGQGTQVTVSS
- polyreactivity (PSR sort gate): low polyreactivity

Sequence: QVQLVESGGGLVQAGGSLRLSCAASGRTFPYNAMGWYRQAPGKERELVAAITWRGGRTYYADSVKGRFTISRDYAKNTVYLQMNSLKPEDSAVYYCATVRVSRVRPFWNVWRSNYWGQGTQVTVSS
- polyreactivity (PSR sort gate): high polyreactivity
